Assay results from publication PMC2781058 (Proceedings of the National Academy of Sciences of the …, 2009).

T1: Med18 (S. cerevisiae, UniProt P32585 1-307)
T1 sequence (looked up): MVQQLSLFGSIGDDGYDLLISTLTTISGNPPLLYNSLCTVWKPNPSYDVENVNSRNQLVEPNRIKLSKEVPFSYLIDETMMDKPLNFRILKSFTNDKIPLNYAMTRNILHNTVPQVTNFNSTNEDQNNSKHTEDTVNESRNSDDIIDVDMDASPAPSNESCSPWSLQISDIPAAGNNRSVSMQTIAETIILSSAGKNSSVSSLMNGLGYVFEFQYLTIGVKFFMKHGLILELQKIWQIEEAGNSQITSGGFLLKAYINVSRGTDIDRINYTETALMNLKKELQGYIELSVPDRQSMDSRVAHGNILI


Target: T1, Med18
Experiment: co-IP

binding result	Binder
binds	Med20 (natural protein, S. cerevisiae, UniProt P34162 1-210, looked up) MGKSAVIFVERATPATLTELKDALSNSILSVRDPWSIDFRTYRCSIKNLPADVSKLMYSITFHHHGRQTVLIKDNSAMVTTAAAADIPPALVFNGSSTGVPESIDTILSSKLSNIWMQRQLIKGDAGETLILDGLTVRLVNLFSSTGFKGLLIELQADEAGEFETKIAGIEGHLAEIRAKEYKTSSDSLGPDTSNEICDLAYQYVRALEL
binds	Med8 (natural protein, S. cerevisiae, UniProt P38304 1-223, looked up) MSQSTASLVPEGNQGSLQEDVSFDFNGVPGQALDAVRMRLAQLTHSLRRIRDEMSKAELPQWYTLQSQLNVTLSQLVSVTSTLQHFQETLDSTVVYPLPKFPTTSHESLVTTLLRKKNIPEVDEWMKYVRETSGVTTALLKDEEIEKLLQQDREITNWARTTFRNEYGKHDFKNEESLSEEHASLLVRDSKPSKPFNVDDVLKFTFTGEKPIITGSTSTSSSN
